B1: Peroxisomal bifunctional enzyme (Homo sapiens), Q08426 (parent)
chain: MAEYTRLHNALALIRLRNPPVNAISTTLLRDIKEGLQKAVIDHTIKAIVICGAEGKFSAGADIRGFSAPRTFGLTLGHVVDEIQRNEKPVVAAIQGMAFGGGLELALGCHYRIAHAEAQVGLPEVTLGLLPGARGTQLLPRLTGVPAALDLITSGRRILADEALKLGILDKVVNSDPVEEAIRFAQRVSDQPLESRRLCNKPIQSLPNMDSIFSEALLKMRRQHPGCLAQEACVRAVQAAVQYPYEVGIKKEEELFLYLLQSGQARALQYAFFAERKANKWSTPSGASWKTASARPVSSVGVVGLGTMGRGIVISFARARIPVIAVDSDKNQLATANKMITSVLEKEASKMQQSGHPWSGPKPRLTSSVKELGGVDLVIEAVFEEMSLKKQVFAELSAVCKPEAFLCTNTSALDVDEIASSTDRPHLVIGTHFFSPAHVMKLLEVIPSQYSSPTTIATVMNLSKKIKKIGVVVGNCFGFVGNRMLNPYYNQAYFLLEEGSKPEEVDQVLEEFGFKMGPFRVSDLAGLDVGWKSRKGQGLTGPTLLPGTPARKRGNRRYCPIPDVLCELGRFGQKTGKGWYQYDKPLGRIHKPDPWLSKFLSRYRKTHHIEPRTISQDEILERCLYSLINEAFRILGEGIAASPEHIDVVYLHGYGWPRHKGGPMFYASTVGLPTVLEKLQKYYRQNPDIPQLEPSDYLKKLASQGNPPLKEWQSLAGSPSSKL
B2: Homeobox protein PKNOX1 (Homo sapiens), P55347 (parent)
chain: MMATQTLSIDSYQDGQQMQVVTELKTEQDPNCSEPDAEGVSPPPVESQTPMDVDKQAIYRHPLFPLLALLFEKCEQSTQGSEGTTSASFDVDIENFVRKQEKEGKPFFCEDPETDNLMVKAIQVLRIHLLELEKVNELCKDFCSRYIACLKTKMNSETLLSGEPGSPYSPVQSQQIQSAITGTISPQGIVVPASALQQGNVAMATVAGGTVYQPVTVVTPQGQVVTQTLSPGTIRIQNSQLQLQLNQDLSILHQDDGSSKNKRGVLPKHATNVMRSWLFQHIGHPYPTEDEKKQIAAQTNLTLLQVNNWFINARRRILQPMLDSSCSETPKTKKKTAQNRPVQRFWPDSIASGVAQPPPSELTMSEGAVVTITTPVNMNVDSLQSLSSDGATLAVQQVMMAGQSEDESVDSTEEDAGALAPAHISGLVLENSDSLQ

Variants of: B1
Details: with fund1_human FUNDC1, Q8IVP5
fund1_human FUNDC1, Q8IVP5, sequence (Q8IVP5 whole entry): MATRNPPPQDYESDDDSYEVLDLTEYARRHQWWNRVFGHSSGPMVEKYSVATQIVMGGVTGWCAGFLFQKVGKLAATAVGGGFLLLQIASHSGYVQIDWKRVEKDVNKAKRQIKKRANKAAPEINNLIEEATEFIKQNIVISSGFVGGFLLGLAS
With Q685K the “effect of a mutation on the interaction” value was “disrupting interaction strength”.

Variants of: B1
Details: with tri41_human TRIM41, Q8WV44
With Q685K the “effect of a mutation on the interaction” value was “with no effect”.

Variants of: B1
Details: with CCDC102B
For Q685K, the “effect of a mutation on the interaction” value was “with no effect”.

Variants of: B1
Details: with tpp2_human TPP2, P29144
With S703F the “effect of a mutation on the interaction” value was “with no effect”. In the case of R556G, the “effect of a mutation on the interaction” value is reported as “with no effect”.

Variants of: B1
Details: with actb_human ACTB
S703F was tested, and the “effect of a mutation on the interaction” value was “with no effect”. For R556G, the “effect of a mutation on the interaction” value was “with no effect”.

Variants of: B1
Details: with actg_human ACTG1, P63261
S703F was tested, and the “effect of a mutation on the interaction” value was “with no effect”. In the case of R556G, the “effect of a mutation on the interaction” value is reported as “with no effect”.

Variants of: B1
Details: with tnip1_human TNIP1, Q15025
tnip1_human TNIP1, Q15025, sequence (Q15025 whole entry): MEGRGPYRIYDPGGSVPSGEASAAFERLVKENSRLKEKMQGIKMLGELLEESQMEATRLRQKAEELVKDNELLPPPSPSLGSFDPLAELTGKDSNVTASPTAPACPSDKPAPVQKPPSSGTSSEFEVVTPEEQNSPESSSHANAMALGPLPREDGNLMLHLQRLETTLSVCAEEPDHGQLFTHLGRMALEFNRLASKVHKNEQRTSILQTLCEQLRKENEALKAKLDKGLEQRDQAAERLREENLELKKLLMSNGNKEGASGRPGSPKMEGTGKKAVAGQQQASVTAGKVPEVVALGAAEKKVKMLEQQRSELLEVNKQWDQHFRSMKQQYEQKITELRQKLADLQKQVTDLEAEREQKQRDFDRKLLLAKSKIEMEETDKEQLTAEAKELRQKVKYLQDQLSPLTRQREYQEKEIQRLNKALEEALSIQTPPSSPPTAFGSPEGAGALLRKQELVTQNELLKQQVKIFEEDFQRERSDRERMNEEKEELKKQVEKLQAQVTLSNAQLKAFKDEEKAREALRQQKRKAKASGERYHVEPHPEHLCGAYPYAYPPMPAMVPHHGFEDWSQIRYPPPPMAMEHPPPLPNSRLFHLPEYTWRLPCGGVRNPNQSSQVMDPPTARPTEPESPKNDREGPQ
S703F was tested, and the “effect of a mutation on the interaction” value was “with no effect”.

Variants of: B2
Details: with vp37c_human VPS37C
For V265I, the “effect of a mutation on the interaction” value was “with no effect”.

Variants of: B2
Details: with vp37c_human VPS37C
Remark: another data set of the same source
In the case of V265I, the “effect of a mutation on the interaction” value is reported as “with no effect”.

Source: IntAct's records for PubMed 31515488
